Laboratory results: patent US20040009892A1, “Method for the identification and use of substances that modulate POD function and/or structure” (The Salk Institute for Biological Studies, priority 1997, published 2004)

Tested on: Hep-2 cells
Test: Immunofluorescence localization of PML and DipA in Hep-2 cells
Type: cell-based
Settings: 5 μg of gamma interferon for 18 hrs before fixation
Protocol: Hep-2 cells were grown in round coverslips and maintained in DMEM supplemented with 10% fetal calf serum in a humidified atmosphere containing 5% CO2. Cells were treated with 5 μg of gamma interferon (Biosource) or mocked treated for 18 hrs before fixation. Cells were fixed by one of two methods. In a first method, the cells were fixed at room temperature for 5 min with freshly prepared 1% paraformaldehyde in PBS, washed with PBS, and permeabilized for 20 min on ice with 0.2% Triton X-100 in PBS (v/v) (Sigma Chemical Co.). Antigen localization (PML and DipA) was determined after incubation of permeabilized cells with rabbit antiserum (DipA Ab) and a specific PML mab diluted in PBS for 1 hr at RT. Cells were double labeled with the respective second antibodies labeled either with FITC or Texas red, using FITC for the structures with the lowest staining intensity.
Alternatively, cells were fixed at −20° C. for 5 min with fresh and cold acetone followed by fresh and cold absolute methanol.
The cells were incubated with the first Ab diluted in PBS-10% calf serum for two hrs at RT in a humidified chamber. Coverslips were washed for 10 min in PBS 0.05% Tween 20. […]
Fluorescence images were analyzed using either the Leica confocal scanning microscope or a Nikon Microphot-SA immunofluorescence microscope. […]

B1: interferon gamma: gamma interferon (Biosource) used to treat Hep-2 cells (protein, UniProt P01579 24-161, looked up)
Interferon gamma: QDPYVKEAENLKKYFNAGHSDVADNGTLFLGILKNWKEESDRKIMQSQIVSFYFKLFKNFKDDQSIQKSVETIKEDMNVKFFNSNKKKRDDFEKLTNYSVTDLNVQRKAIHELIQVMAELSPAAKTGKRKRSQMLFRG
  co-localization of PML and DipA in the POD structures: increased co-localization of PML and DipA in the POD structures
